Results as given in the supplement of paper PMC9732359.
± gives the uncertainty stated by the source.

Assay: protein stability index of a GFP-peptide fusion (yeast GPS) (PSI 1-4); higher = more stable; sorted into four equal gates, so the index is relative within each strain
Summary of the method: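 Each library plasmid carries Cherry plus GFP with a tiled 17-residue yeast protein peptide fused downstream, and the pooled library was carried in yeast. Mid-log cultures in leucine-free medium were sorted into four equal gates by GFP/Cherry ratio. Reads from Illumina sequencing of PCR-amplified plasmids from each gate were assigned to strains by barcodes. Per peptide, the protein stability index was computed as the summed products of gate read frequency and gate number.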

Sequence | protein stability index (doa10∆) | protein stability index (pdr5∆) | protein stability index (san1∆) | protein stability index (ubr1∆)
PSNESCSPWSLQISDIP [SRB5] | 2.87 ± 0.058 | 2.78 ± 0.047 | 2.97 ± 0.039 | 2.91 ± 0.032
LQDWQREDEFGSIPSLT [YDL088C/ASM4] | 3.22 ± 0.073 | 3.19 ± 0.066 | 3.11 ± 0.049 | 3.53 ± 0.082
MDPQTLITKANKVSYYG [RTT102] | 1.85 ± 0.047 | 1.73 ± 0.042 | 1.71 ± 0.12 | 1.87 ± 0.052
NIGQQQVKKPRKQRVKK [SWI1] | 3.47 ± 0.12 | 3.35 ± 0.13 | 3.42 ± 0.084 | 3.48 ± 0.11
MNERDWRILKEDYAIVT [PRP28] | 3.42 ± 0.22 | 3.16 ± 0.23 | – | –
IQRLRLLREKQRVRNMR [YOR098C/NUP1] | – | 1.28 ± 0.086 | – | 1.41 ± 0.26
NVVVKWQGKPVFIRHRT [RIP1] | 3.35 ± 0.25 | – | 3.41 ± 0.07 | 2.88 ± 0.27
NHFKDTYGFSILDIVIN [FAS1] | 3.41 ± 0.12 | 3.28 ± 0.11 | 3.33 ± 0.091 | 3.29 ± 0.088
SSGVLSSNIAGTNPLSS [SSN2] | 3.41 ± 0.13 | 2.9 ± 0.12 | 2.83 ± 0.19 | 3.31 ± 0.088
SAQSIASAKSVRSGVSK [YAR002W/NUP60] | 2.88 ± 0.072 | 2.93 ± 0.092 | 3 ± 0.069 | 2.96 ± 0.057
ISEEETTVKPLFQNVPE [YAR002W/NUP60] | 3.01 ± 0.069 | 3.25 ± 0.068 | 3.23 ± 0.043 | 3.01 ± 0.058
FLIHSGQPVNDFIDTAT [RPS3] | 2.71 ± 0.053 | 3 ± 0.056 | 3.09 ± 0.05 | 3.04 ± 0.073
TPTHSDSHEDMKRRRLE [ROX3] | 2.89 ± 0.15 | 3.33 ± 0.15 | 3.14 ± 0.18 | 3.14 ± 0.091
FQQIQYENKQLYFPDDY [POP1] | 2.92 ± 0.11 | 2.5 ± 0.083 | 2.78 ± 0.12 | 2.73 ± 0.086
SCQGNVIYRNSLYKVSF [YMR129W/POM152] | 2.54 ± 0.064 | 2.76 ± 0.068 | 2.56 ± 0.064 | 2.71 ± 0.094
ETLENGETRMKMLNEFV [SMC2] | 2.87 ± 0.12 | 3.06 ± 0.24 | 3.17 ± 0.15 | –
TKYSDVLGFLQLFHNLI [YJL039C/NUP192] | 2.75 ± 0.063 | 2.65 ± 0.062 | 2.86 ± 0.048 | 2.94 ± 0.049
RALYTPFLLMELHKKLV [YDL116W/NUP84] | 1.82 ± 0.094 | 1.45 ± 0.087 | 1.29 ± 0.22 | 1.26 ± 0.13
EILTSVDVLGTHSQTGT [SIR4] | 2.93 ± 0.069 | 2.76 ± 0.063 | 2.87 ± 0.067 | 3.07 ± 0.037
LSEDKKKLDYVLALKVE [RPS9A] | 1.31 ± 0.17 | 2.22 ± 0.23 | 1.41 ± 0.16 | 1.49 ± 0.29
FNNEAPPQTRKFQPPPG [SMB1] | 2.86 ± 0.1 | 3.11 ± 0.1 | 3.01 ± 0.075 | 3.13 ± 0.085
SYAGISTDKLVQCHGSF [SIR2] | 2.57 ± 0.12 | 2.76 ± 0.11 | 2.78 ± 0.13 | 2.98 ± 0.092
QHLQFNGSSDASSLRFG [YDL088C/ASM4] | 2.24 ± 0.055 | 2.3 ± 0.049 | 1.99 ± 0.076 | 1.83 ± 0.038
LNAITLDGDRADKRGVL [SMC3] | 2.94 ± 0.15 | 3.1 ± 0.17 | – | 3.03 ± 0.097
SPHGLINLNVDDDILII [SRB4] | 3.1 ± 0.074 | 3.2 ± 0.075 | 3.11 ± 0.054 | 3.05 ± 0.045
RRNRYKTYYGIHCLAVR [RPN7] | 1.23 ± 0.05 | 1.38 ± 0.073 | 1.29 ± 0.13 | 1.17 ± 0.044

Sequence | protein stability index (doa10∆) | protein stability index (pdr5∆) | protein stability index (san1∆) | protein stability index (ubr1∆)
NEGAASSNPQSAYVKAF [SMC1] | 2.62 ± 0.051 | 2.6 ± 0.053 | 2.5 ± 0.032 | 2.69 ± 0.027
SADAPNPNNVNVQTQYR [RET1] | 2.92 ± 0.09 | 2.84 ± 0.045 | 2.77 ± 0.07 | 2.79 ± 0.05
EENDLQQKLNTRMQRGH [REC8] | 3.17 ± 0.12 | 3.14 ± 0.078 | 3.2 ± 0.22 | 3.4 ± 0.048
KRIHSVRTRGGNKKYRA [RPS8A] | 2.509 ± 0.024 | 2.621 ± 0.022 | 2.626 ± 0.025 | 2.591 ± 0.018
TRYMFQRDFRKHGAVHM [RPL21B] | 2.22 ± 0.099 | 2.14 ± 0.06 | 1.79 ± 0.12 | 1.99 ± 0.077
DEHHESFELKEEDISDL [RRP6] | 3.01 ± 0.072 | 3.23 ± 0.084 | 2.9 ± 0.075 | 3.15 ± 0.059
VIWSEDNDEKLIIRCRV [RPO21] | 3.34 ± 0.15 | 2.96 ± 0.19 | 3.53 ± 0.088 | 2.84 ± 0.19
SVREINLYMLVTTCVYL [SSN8] | 2.32 ± 0.057 | 1.67 ± 0.047 | 2.33 ± 0.065 | 1.92 ± 0.047
SEKRLDHFIHLRNLHMK [SNF12] | 2.75 ± 0.051 | 2.73 ± 0.043 | 2.74 ± 0.052 | 2.62 ± 0.037
ITKVPALEFLNTTLQDN [REC8] | 2.77 ± 0.08 | 2.7 ± 0.15 | 2.98 ± 0.12 | 2.71 ± 0.084
IVTEQPSAEIREAYIEN [SWP82] | 2.47 ± 0.062 | 2.88 ± 0.062 | 2.74 ± 0.073 | 2.2 ± 0.065
NRWHSESWANQLTVCGA [FAS2] | 1.93 ± 0.04 | 1.87 ± 0.053 | 1.8 ± 0.086 | 1.86 ± 0.042
QEITTNLENHFKKSKID [SCL1] | 3.12 ± 0.089 | 3.15 ± 0.08 | 3.1 ± 0.06 | 3.22 ± 0.063
DNRTKSTTIKNIDILNR [SMC4] | 1.85 ± 0.062 | 2.07 ± 0.062 | 1.77 ± 0.15 | 1.67 ± 0.08
DDPVPTPPAIEHKPVSP [SSN2] | 2.63 ± 0.14 | 2.59 ± 0.26 | 2.72 ± 0.29 | 2.49 ± 0.16
KEKVSNGGVGVDVELIT [FAS2] | 2.96 ± 0.046 | 3.13 ± 0.062 | 3.11 ± 0.056 | 3.05 ± 0.05
SANPKKTTITRVEPETF [SWI3] | 2.86 ± 0.065 | 3.06 ± 0.068 | 3.03 ± 0.052 | 2.95 ± 0.051
MISEVPSVAAEYVYFFN [RPC40] | 1.53 ± 0.11 | 1.13 ± 0.091 | 1.23 ± 0.11 | 1.07 ± 0.079
ERKEREDFQKRQQKLLE [SWI1] | 3.27 ± 0.073 | 3.32 ± 0.06 | 3.34 ± 0.049 | 3.2 ± 0.048
KDERGEGEAKQKRNAHG [ITC1] | 3.21 ± 0.18 | 3.69 ± 0.23 | 3.46 ± 0.098 | 3.34 ± 0.14
IDYHKTAKETKMLMNLH [RPN11] | 2.5 ± 0.061 | 2.45 ± 0.06 | 2.84 ± 0.057 | 2.58 ± 0.055
AATVHTATSSSIILSDK [SSN2] | 2.19 ± 0.043 | 2.29 ± 0.032 | 2.02 ± 0.053 | 2.39 ± 0.041
NFQDLSYLSETLISRIS [YML103C/NUP188] | 2.38 ± 0.082 | 2.51 ± 0.079 | 2.04 ± 0.093 | 2.32 ± 0.074
KQAHEKLDASKKQQAAL [YIL149C/MLP2] | 3.08 ± 0.064 | 2.88 ± 0.052 | 3.25 ± 0.059 | 3 ± 0.057
SKRVYKILSPTMYMEVY [CDC53] | 2.29 ± 0.075 | 2.68 ± 0.098 | 2.15 ± 0.076 | 2.63 ± 0.092
